In PMC12019227, “Phase separation of hnRNPA1 and TERRA regulates telomeric stability”:

What was measured:
UP1 R82A = UP1 R82A (human, UniProt P09651 1-196, R82A); assay: ITC; ITC: 20 mM Tris-HCl pH 7.5, 150 mM NaCl, 20 C; protein 160 uM in syringe, RNA 10 uM in cell; details: protein: recombinant; tags: C-terminal His6; single strand; crystal has 2 antiparallel strands
UP1 R82A/K113A = UP1 R82A/K113A (human, UniProt P09651 1-196, R82A;K113A); assay: as above; details: protein: recombinant, tags: C-terminal His6, single strand
UP1 V90A/R92A/S95A = UP1 V90A/R92A/S95A (human, UniProt P09651 1-196, V90A;R92A;S95A); assay: as above; details: protein: recombinant; tags: C-terminal His6; single strand; crystal has 2 antiparallel strands
UP1 R55A = UP1 R55A (human, UniProt P09651 1-196, R55A); assay: as above; details: protein: recombinant; tags: C-terminal His6; single strand; crystal has 2 antiparallel strands
UP1 R146A = UP1 R146A (human, UniProt P09651 1-196, R146A); assay: as above; details: protein: recombinant; tags: C-terminal His6; single strand; crystal has 2 antiparallel strands
UP1 K113A = UP1 K113A (human, UniProt P09651 1-196, K113A); assay: as above; details: protein: recombinant; tags: C-terminal His6; single strand; crystal has 2 antiparallel strands
UP1 wt = UP1 wt (human, UniProt P09651 1-196); assay: as above; details: protein: recombinant, tags: C-terminal His6, chain copies: 2, single strand
UP1 Q12A/G147A = UP1 Q12A/G147A (human, UniProt P09651 1-196, Q12A;G147A); assay: as above; details: protein: recombinant, tags: C-terminal His6, single strand
UP1 D42R = UP1 D42R (human, UniProt P09651 1-196, D42R); assay: as above; details: protein: recombinant; tags: C-terminal His6; single strand; crystal has 2 antiparallel strands
UP1 D42R/R146A [1] = target: T1, UP1 D42R/R146A (human, UniProt P09651 1-196, D42R;R146A); assay: ITC; text: could not bind RNA at all (conflicts with table); ITC: 20 mM Tris-HCl pH 7.5, 150 mM NaCl, 20 C; protein 160 uM in syringe, RNA 10 uM in cell; details: protein: recombinant; tags: C-terminal His6; single strand; crystal has 2 antiparallel strands
UP1 D42R/R146A [2] = target: T1, UP1 D42R/R146A; assay: ITC; ITC: 20 mM Tris-HCl pH 7.5, 150 mM NaCl, 20 C; protein 160 uM in syringe, RNA 10 uM in cell; details: protein: recombinant; tags: C-terminal His6; single strand
[3] = crystal has 2 antiparallel strands

Sequence of UP1 R82A/K113A (P09651 1-196 R82A/K113A): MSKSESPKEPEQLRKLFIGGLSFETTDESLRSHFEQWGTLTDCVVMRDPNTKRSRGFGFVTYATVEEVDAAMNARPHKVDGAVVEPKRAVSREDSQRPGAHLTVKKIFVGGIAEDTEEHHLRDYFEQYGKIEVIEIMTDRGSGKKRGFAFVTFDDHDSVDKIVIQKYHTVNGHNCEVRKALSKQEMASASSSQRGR
T1 sequence (P09651 1-196 D42R/R146A): as the sequence (P09651 1-196 R82A/K113A) above, with D42R, A82R, A113K, R146A counted along it
Sequence of UP1 Q12A/G147A (P09651 1-196 Q12A/G147A): as the sequence (P09651 1-196 R82A/K113A) above, with Q12A, A82R, A113K, G147A counted along it
Sequence of UP1 wt (P09651 1-196): as the sequence (P09651 1-196 R82A/K113A) above, with A82R, A113K counted along it
Sequence of UP1 R146A (P09651 1-196 R146A): as the sequence (P09651 1-196 R82A/K113A) above, with A82R, A113K, R146A counted along it
Sequence of UP1 V90A/R92A/S95A (P09651 1-196 V90A/R92A/S95A): as the sequence (P09651 1-196 R82A/K113A) above, with A82R, V90A, R92A, S95A, A113K counted along it
Sequence of UP1 R82A (P09651 1-196 R82A): as the sequence (P09651 1-196 R82A/K113A) above, with A113K counted along it
Sequence of UP1 D42R (P09651 1-196 D42R): as the sequence (P09651 1-196 R82A/K113A) above, with D42R, A82R, A113K counted along it
Sequence of UP1 K113A (P09651 1-196 K113A): as the sequence (P09651 1-196 R82A/K113A) above, with A82R counted along it
Sequence of UP1 R55A (P09651 1-196 R55A): as the sequence (P09651 1-196 R82A/K113A) above, with R55A, A82R, A113K counted along it

Binder | Kd (UP1 R82A) [nM] | Kd (UP1 R82A/K113A; [3]) [nM] | Kd (UP1 V90A/R92A/S95A) [nM] | Kd (UP1 R55A) [nM] | Kd (UP1 R146A) [nM] | Kd (UP1 K113A) [nM] | Kd (UP1 wt; [3]) [nM] | Kd (UP1 Q12A/G147A; [3]) [nM] | Kd (UP1 D42R) [nM] | Kd (UP1 D42R/R146A [1]) [nM] | Kd (UP1 R82A/K113A) [nM] | Kd (UP1 wt) [nM] | Kd (UP1 D42R/R146A [2]) [µM] | Kd (UP1 Q12A/G147A) [nM]
UUAGGGUUAGGG (ssRNA) [TERRA (UUAGGG)2] | 460 ± 70 | 770 ± 160 | 1410 ± 120 | 520 ± 40 | 2120 ± 500 | 300 ± 20 | 270 ± 20 | 120 ± 20 | 630 ± 120 | 2260 ± 310 |  |  |  | 
TTAGGGTTAGGG (ssDNA) [Telo DNA (TTAGGG)2] |  |  |  |  |  |  |  |  |  |  | 100 ± 30 | 80 ± 20 | 4.03 ± 1.02 | 210 ± 80
